Measurements published in IntAct's records for PubMed 18449195.

B1: SOSS complex subunit B1 (Homo sapiens), Q9BQ15 (parent)
chain: MTTETFVKDIKPGLKNLNLIFIVLETGRVTKTKDGHEVRTCKVADKTGSINISVWDDVGNLIQPGDIIRLTKGYASVFKGCLTLYTGRGGDLQKIGEFCMVYSEVPNFSEPNPEYSTQQAPNKAVQNDSNPSASQPTTGPSAASPASENQNGNGLSAPPGPGGGPHPPHTPSHPPSTRITRSQPNHTPAGPPGPSSNPVSNGKETRRSSKR

Variants of: B1
Details: with atm_human ATM

| effect of a mutation on the interaction | Variant |
| --- | --- |
| disrupting interaction | T117A |
